The record followed here is the supplement of paper PMC10724198.

± gives the standard deviation of the averaged measurements.
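Further: PSI is a weighted mean of sequencing reads over stability bins, variants kept only with over 10 reads, mCherry proximal and sfGFP distal, peptide attached via GGGS linker.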

This data set has as its system Saccharomyces cerevisiae. As to the kind of experiment: protein stability index of tFT-peptide fusion (C-terminal peptide) (PSI (0-1 scale)); higher = more stable (slower turnover). The note with it: genetic background: wild type; temperature: 30 C.
For PTMGRRPGRGGA, the protein stability index is 0.6987 ± 0.00073.

PTPPPALPPPPL had a protein stability index of 0.6994 ± 0.0054. To PTPPPQPTPHTP belongs 0.705 ± 0.035; to PTPPPRPPLSPP, 0.692 ± 0.046. The sequence PTPPRPGPIITF showed a protein stability index of 0.699 ± 0.031. In the case of PTPTAPEPIHPS it was 0.61 ± 0.0025; in that of PTPTNLLPPRKY, 0.6504 ± 0.0044; in that of PTRPAMILPNRY, 0.698 ± 0.049. In the case of PTRPPRPRAGPR it was 0.742 ± 0.0077.

As to PTSFAPSPPLPR, the protein stability index stood at 0.741 ± 0.025. In the case of PTTLTTPTPPHR it was 0.7161 ± 0.0022; in that of PTYTPAFPPVSS, 0.699 ± 0.018.

PVDGGAGPEVKG registered a protein stability index of 0.641 ± 0.1. PVETVRCCLACP: the protein stability index was 0.64643 ± 0.00047. In the case of PVFPPTPLSPRP it was 0.571 ± 0.077.

Consider PVGDWPRGKGAD, for which the protein stability index is 0.684 ± 0.13. To PVLYPPPPFPPY belongs 0.747 ± 0.0095. PVPIPCPIPPPT displayed a protein stability index of 0.703 ± 0.0062. For the sequence PVPLLPLSFSLL, the protein stability index came out at 0.736 ± 0.064. With PVPNPPPAPRSS, the protein stability index is 0.698 ± 0.062.

With PVPPPPCPPLPP, the protein stability index came out at 0.683 ± 0.024. For PVPRNRQRWREP, the protein stability index came to 0.663 ± 0.017. To PVPRVPLYFPLV belongs 0.675 ± 0.017; to PVRLGAGGGCRP, 0.693 ± 0.02; to PVRSPPPLPSPP, 0.653 ± 0.037.

The sequence PVSSFQHSLPWL showed a protein stability index of 0.708 ± 0.03. To PVSSLHFPLPGF belongs 0.677 ± 0.027; to PVSSPLVFLLSI, 0.625 ± 0.045; to PVSTINLNIQST, 0.836 ± 0.087. In the case of PVTMWAGGKYYV it was 0.718 ± 0.088. In the case of PVWLLASSLADL it was 0.722 ± 0.039; in that of PYSLRSTASSFP, 0.63 ± 0.12. Turning to PYSPPAHLLSLL, the protein stability index came to 0.878 ± 0.061. In the case of QASFPRPSGRAS it was 0.7026 ± 0.0054; in that of QAVPRAAHLHPL, 0.66 ± 0.11. To QCAPVFIAVCRL belongs 0.681 ± 0.14; to QCIQQNVSSSRA, 0.646 ± 0.014. In the case of QCLFPVAYYLTP it was 0.657 ± 0.0097; in that of QDHIGSTEGYKH, 0.663 ± 0.074. The sequence QDSANLSPSFPF yielded a protein stability index of 0.724 ± 0.048. In the case of QEESRARKGTQT it was 0.627 ± 0.034.

The sequence QEKKKVNKKENK had a protein stability index of 0.737 ± 0.045. The sequence QEKSLSHTQRYR displayed a protein stability index of 0.762 ± 0.072. For the sequence QFERSVFLANAL, the protein stability index came out at 0.679 ± 0.023. To QFRRKGMITECK belongs 0.7161 ± 0.0029; to QFSPPLSLAPLP, 0.783 ± 0.05. In the case of QFSRSFHSLPPT it was 0.683 ± 0.022; in that of QFWVICTRGSEN, 0.694 ± 0.029; in that of QGGGGGGRSGWR, 0.6854 ± 0.0061. To QGRCHSRARMTP belongs 0.731 ± 0.046.

Consider QGSWLRSVNLEY, for which the protein stability index was found to be 0.617 ± 0.092. In the case of QGTCSQSIEAHF it was 0.706 ± 0.14; in that of QHIKNARKKKGE, 0.657 ± 0.0073; in that of QIEQQKHKQPLI, 0.6859 ± 0.0024. As to QIPEYGGQGVNV, the protein stability index was 0.6935 ± 0.0047. In the case of QIYKISKKKKQK it was 0.676 ± 0.055. QIYRMKNRYNKS displayed a protein stability index of 0.7 ± 0.038.

Sequence QKATRHRTRPRR gave a protein stability index of 0.688 ± 0.12. In turn, QKEGGRENETRT returned a protein stability index of 0.6906 ± 0.0053. QKHGARISSQKK came in with a protein stability index of 0.703 ± 0.012. In the case of QKKIKKPKSKKH it was 0.736 ± 0.031; in that of QKKKKTTVKKRQ, 0.671 ± 0.021; in that of QKKPEMLNKKSY, 0.639 ± 0.015. In the case of QKKQKIKYRSKN it was 0.714 ± 0.053.
